One molecule from patent US20130071381A1 (Takeda / Millennium, published 2013) can be followed below.

Assay [1] has as its target T1, human CC-chemokine receptor 2 (CCR2), endogenous on THP-1 cells, THP-1 membranes and human blood cells (human, UniProt P41597 1-374).
T1 construct: whole, on cells; The isoform is not specified for THP-1 cells or PBMC; also called CKR-2; MCP-1RA
As to the kind of experiment: competition with 0.1 nM [125I]MCP-1 on THP-1 cell membranes, filtration and scintillation counting. On the procedure:
FIG. 4 illustrates that mAb 1D9 inhibits [¹²⁵I]MCP-1 binding to THP-1 cell membranes. 3.0 μg of THP-1 membrane protein was incubated with 0.1 nM [¹²⁵I]MCP-1 in the presence of various concentrations of 1D9 or the isotype-matched anti-CXCR3 antibody 1C6. The amount of bound tracer was determined by separation of free from bound by filtration and scintillation counting. The data was analyzed to determine the IC₅₀ value by non-linear regression using a 4-parameter logistic equation with KaleidaGraph software.
MCP-1 binding was performed in a final volume of 0.1 ml of 50 mM Hepes pH 7.4, 1 mM CaCl₂, 5 mM MgCl₂, 0.02% sodium azide, 0.5% BSA (HBB), containing either 2.5 μg THP-1 membrane protein or 500,000 PBMC and 0.1 nM of [¹²⁵I]-MCP-1. Competition binding experiments were performed by including variable concentrations of unlabeled MCP-1, 1D9 antibody, or a negative control IgG2a. Nonspecific binding was determined following the addition of a 2500-fold excess of unlabeled MCP-1. […] The filters were washed in HBB further supplemented with 0.5 M NaCl, dried, and the amount of bound radioactivity determined by liquid scintillation counting. mAb 1D9 inhibits [¹²⁵I]MCP-1 binding to THP-1 cell membranes with an IC₅₀ of about 0.004 μg/ml (approximately 0.02 nM; FIG. 4) and to fresh PBMC with an IC₅₀ of 0.04 μg/ml (approximately 0.2 nM; FIG. 5).

The target of assay [2] is T2, CCR5 expressed on L1/2 transfectants (UniProt P51681 1-352, limits assumed).
T2 construct: whole, on cells; also called CCR5 transfectants
As to the kind of experiment: flow cytometry on L1/2 transfectants, hybridoma supernatant. As for the experimental part:
(§1) For the staining of cultured transfectant cell lines 0.5×10⁶ cells in 50 μl were resuspended in PBS+1% FCS in a 96 well polystyrene V-bottom plate. 50 μl of primary antibody supernatants or HT medium (negative control) were added, and the samples were incubated at 4° C. for 30 min. 100 μl of PBS were added and the cells were pelleted by centrifugation and washed once with PBS. The pellet was resuspended in 100 μl PBS+1% FCS containing FITC-conjugated goat anti-mouse IgG antibody (a 1:250 dilution) and incubated for thirty minutes at […] in the dark. The cells were washed twice with PBS, resuspended in PBS, and analyzed by flow cytometry with a FacScan cytometer using the CellQuest software (Becton-Dickenson) Cells were fixed with PBS/1% formaldehyde if they were not to be analyzed the same day. Monoclonal antibodies 1D9 and 8G2 stain CCR2 transfectants but not CCR1 or CCR5 transfectants (FIGS. 1A-10).

For assay [3], the target named is T3, CCR1 expressed on L1/2 transfectants (UniProt P32246 1-355, limits assumed).
T3 construct: whole, on cells; also called CCR1 transfectants
T3 sequence (looked up): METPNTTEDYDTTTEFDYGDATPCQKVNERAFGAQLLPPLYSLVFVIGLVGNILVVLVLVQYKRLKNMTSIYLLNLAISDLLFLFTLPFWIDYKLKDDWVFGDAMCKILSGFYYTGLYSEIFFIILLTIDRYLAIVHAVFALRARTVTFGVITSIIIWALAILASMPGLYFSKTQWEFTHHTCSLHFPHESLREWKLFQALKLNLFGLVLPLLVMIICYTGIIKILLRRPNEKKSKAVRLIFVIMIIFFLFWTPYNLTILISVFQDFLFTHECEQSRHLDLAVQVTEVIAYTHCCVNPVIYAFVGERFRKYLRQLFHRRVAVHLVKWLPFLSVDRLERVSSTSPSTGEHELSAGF
The assay is described as above. As for the experimental part: as §1

Assay [4] deals with T1, human CC-chemokine receptor 2 (CCR2), …. As to the kind of experiment: competition with 0.1 nM [125I]MCP-1 on fresh PBMC, filtration and scintillation counting. As for the experimental part:
MCP-1 binding was performed in a final volume of 0.1 ml of 50 mM Hepes pH 7.4, 1 mM CaCl₂, 5 mM MgCl₂, 0.02% sodium azide, 0.5% BSA (HBB), containing either 2.5 μg THP-1 membrane protein or 500,000 PBMC and 0.1 nM of [¹²⁵I]-MCP-1. Competition binding experiments were performed by including variable concentrations of unlabeled MCP-1, 1D9 antibody, or a negative control IgG2a. Nonspecific binding was determined following the addition of a 2500-fold excess of unlabeled MCP-1. Samples were incubated for 60 minutes at room temperature, and bound and free tracer were separated by filtration through 96-well GF/B filterplates presoaked in 0.3% polyethyleneimine. The filters were washed in HBB further supplemented with 0.5 M NaCl, dried, and the amount of bound radioactivity determined by liquid scintillation counting. mAb 1D9 inhibits [¹²⁵I]MCP-1 binding to THP-1 cell membranes with an IC₅₀ of about 0.004 μg/ml (approximately 0.02 nM; FIG. 4) and to fresh PBMC with an IC₅₀ of 0.04 μg/ml (approximately 0.2 nM; FIG. 5).

“And” between values parts separate entries of the source, which are not always exact repeats. Equal entries are not always repeated.

T1 sequence (P41597 whole entry, canonical isoform): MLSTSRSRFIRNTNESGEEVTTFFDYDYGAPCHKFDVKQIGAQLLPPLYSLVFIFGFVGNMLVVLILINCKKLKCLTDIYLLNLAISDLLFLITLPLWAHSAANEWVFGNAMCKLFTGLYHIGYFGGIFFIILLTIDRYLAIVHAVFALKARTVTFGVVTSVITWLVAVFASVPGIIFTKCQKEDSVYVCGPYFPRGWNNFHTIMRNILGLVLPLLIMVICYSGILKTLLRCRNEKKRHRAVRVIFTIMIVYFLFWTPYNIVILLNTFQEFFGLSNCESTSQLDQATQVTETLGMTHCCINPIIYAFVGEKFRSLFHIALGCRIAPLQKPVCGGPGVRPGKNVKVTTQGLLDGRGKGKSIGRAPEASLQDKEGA
T2 sequence (P51681 whole entry): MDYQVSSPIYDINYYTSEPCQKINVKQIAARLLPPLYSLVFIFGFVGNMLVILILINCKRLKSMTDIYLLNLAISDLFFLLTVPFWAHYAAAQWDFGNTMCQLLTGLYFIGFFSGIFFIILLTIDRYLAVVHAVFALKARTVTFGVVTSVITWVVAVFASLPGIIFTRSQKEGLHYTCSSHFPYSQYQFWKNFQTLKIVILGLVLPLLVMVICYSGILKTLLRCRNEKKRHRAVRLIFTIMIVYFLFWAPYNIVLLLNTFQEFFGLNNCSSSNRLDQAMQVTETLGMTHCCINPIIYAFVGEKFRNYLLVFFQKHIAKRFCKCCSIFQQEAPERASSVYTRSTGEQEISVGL

B1: murine monoclonal antibody LS132.1D9 (antibody, V domains shown)
VH: EVQLVESGGGLVQPKGSLKLSCAASGFSFNAYAMNWVRQAPGKGLEWVARIRTKNNNYATYYADSVKDRYTISRDDSESMLFLQMNNLKTEDTAMYYCVTFYGNGVWGTGTTVTVSS
VL: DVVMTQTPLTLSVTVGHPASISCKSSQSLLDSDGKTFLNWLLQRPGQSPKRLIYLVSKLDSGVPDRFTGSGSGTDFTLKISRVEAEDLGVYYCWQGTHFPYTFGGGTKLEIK
notes: Whole murine monoclonal antibody from hybridoma ATCC HB-12549, with a kappa light chain; The controls are called isotype-matched or murine IgG2a, which implies IgG2a; It was used as hybridoma supernatant in the FACS staining; also called mAb 1D9; mus-1D9
By IC50 is commonly meant the midpoint of a concentration-inhibition curve. For B1, the 50% inhibitory concentration (IC50) was ~0.004 µg/mL and ~0.02 nM in assay [1]; 0.04 µg/mL and ~0.2 nM in assay [4]. Besides, the binding result in assay [2] and in assay [3] was “no binding” throughout.
